Source: PMC3064986 (Biochemical and biophysical research communications, 2011)

B1: yeast ornithine decarboxylase (Saccharomyces cerevisiae SPE1) (enzyme, UniProt P08432 1-466, looked up)
chain: MSSTQVGNALSSSTTTLVDLSNSTVTQKKQYYKDGETLHNLLLELKNNQDLELLPHEQAHPKIFQALKARIGRINNETCDPGEENSFFICDLGEVKRLFNNWVKELPRIKPFYAVKCNPDTKVLSLLAELGVNFDCASKVEIDRVLSMNISPDRIVYANPCKVASFIRYAASKNVMKSTFDNVEELHKIKKFHPESQLLLRIATDDSTAQCRLSTKYGCEMENVDVLLKAIKELGLNLAGVSFHVGSGASDFTSLYKAVRDARTVFDKAANEYGLPPLKILDVGGGFQFESFKESTAVLRLALEEFFPVGCGVDIIAEPGRYFVATAFTLASHVIAKRKLSENEAMIYTNDGVYGNMNCILFDHQEPHPRTLYHNLEFHYDDFESTTAVLDSINKTRSEYPYKVSIWGPTCDGLDCIAKEYYMKHDVIVGDWFYFPALGAYTSSAATQFNGFEQTADIVYIDSELD
B2: yeast antizyme (Saccharomyces cerevisiae), N-terminal 6XHis-tagged, full length (natural protein, UniProt Q02803 1-292, looked up)
chain: MYEVIQKRKTKIINVLQSPELMRLIEDPSNLGISLHFPVSSLLKSNKCTPMPKLSTYSLASGGFKDWCADIPLDVPPEIDIIDFYWDVILCMESQFILDYNVPSKNKGNNQKSVAKLLKNKLVNDMKTTLKRLIYNENTKQYKNNNSHDGYNWRKLGSQYFILYLPLFTQELIWCKLNENYFHVVLPSLLNSRNVHDNHSTYINKDWLLALLELTSNLNQNFKFEYMKLRLYILRDDLINNGLDLLKNLNWVGGKLIKNEDREVLLNSTDLATDSISHLLGDENFVILEFEC

What was measured:
[1] = target: B2; test: SEC-MALS
[2] = target: B1; test: SPR

Row | stoichiometry N [1] [ODC per AZ] | Kd [2] [nM] | kon [2] [M⁻¹ s⁻¹] | Binder
1 | 1 | – | – | B1
2 | – | 17.3 | 31400 | B2
